Measured values as given in the RNAGym collection of RNA variant scans (doi:10.7554/elife.90254).

B1: OR4K15 (parent)
chain: GUUAACGGUCAUAGGCCAUGGAAACUAGGAGCACCAUUUCGCUGCCAGUGAAGAAAUGAACAAAGAAAAUCUGGGCCAGGCAGGCAUCAAAAGAAAUAGUCUUGCGCUCAACCAGAAAGUCUGUAAUCAUUUUAAGGGUA

Variants of: B1
Assay: self-cleavage, relative activity (ratio to wild type); higher = more cleavage; in vitro, sequencing; the parent is a self-cleaving ribozyme

Variant | self-cleavage
G7U A111G | 0
A63G U97A | 1.94
U2C A62G | 0.36
U9G A95G | 0.99
U57A C105U | 0.04
A22G U57C | 0.91
G44U A95G | 1.73
U57A A59G | 0.5
A92G A114C | 0.04
A47G G115U | 0.09
U72C G83A | 0.08
G8A C32U | 2.12
A5C A52G | 0.46
A86G U102C | 2.36
U49C C76U | 0.07
A62U A125G | 0.71
A36G A86U | 2.91
A18U A23G | 1.26
G15A A116G | 0.52
A33U A116G | 1.55
A4G A69G | 1.31
U38C U70A | 0.58
U43G A66G | 1.69
A5U A47C | 1.29

Variant | self-cleavage
U43G | 1.7
A47C U49C | 1.24
A129G A135U | 1.54
A68G | 0.98
U70C A114U | 0.02
A5U A118G | 0.83
U19A A55G | 1.79
U3C A116G | 0.68
U72C | 0.12
A125G A140G | 0.69
A129C U133A | 1.68
A134U U139A | 1.59
A55G A91G | 0.98
A64G A95U | 0.64
A27G A66G | 0.7
U108G A118G | 0.01
A95G A98G | 1.49
G14C A82G | 0.32
A78G U97A | 0.27
U39A G137A | 1.8
G83U U108C | 0.02
G106A A140U | 0.05
A5U A86G | 0.92
G41A A111G | 0.02

Variant | self-cleavage
A69U A94G | 2.42
A67G U108A | 0.02
U19C U26C | 1.24
U122C U133C | 2.05
A54U U103G | 0.04
C46U C85U | 1.36
A92G U122C | 1.19
U38C A63U | 0.76
U72A U100C | 0.4
U3C A54C | 0.51
A64U A96C | 1.28
A23G U97A | 1.48
A18G A51G | 1.86
A91G A114G | 0.25
U19C A140U | 1.21
G7U U19C | 1.79
A18C A118G | 1.22
G75A A116U | 0.05
U87G U108C | 0.02
A5G G65A | 0.9
A24C U70G | 0.73
C113G | 0.01
A30U U127C | 0.71
A114U U132C | 0.02

Variant | self-cleavage
U57A U133C | 1.08
A67C U87C | 1.79
A118U U131G | 0.62
A64G U133G | 1.05
A95G A125U | 0.96
U12C A125G | 0.5
A56G U139C | 0.78
A52C A129G | 0.62
U3A A36G | 0.85
G65A A68G | 1.57
U38C U108C | 0.02
A30U A116G | 1.27
A94U A117U | 0.82
U43A U122G | 2.29
A47G C112U | 0.01
A56G U97A | 2.36
A54U A78G | 0.25
U37A A51U | 1.05
C76U C105U | 0.03
C17U C109A | 0.2
C10U A117G | 2.34
A13U A90U | 1.8
A24G A135G | 1.67
A11U A54U | 2.18

Variant | self-cleavage
A78G U108A | 0.03
G75U A126G | 0.08
U97C U124C | 0.17
C85G A86U | 0.31
U38A A66G | 1.31
A33U A47G | 1.68
A69U U108C | 0.02
A5U U127C | 1.03
U43C G136A | 1.75
G20U U122A | 2.45
U38C A126G | 1.56
A96U U120C | 1.17
A89U A135G | 1.53
A47C A68G | 0.55
A55G A116U | 0.27
U38C U127G | 1.17
A18G A94G | 1
A13G C32U | 1.2
A56G A114G | 0.31
C25U A66C | 1.33
A22U A60G | 1.29
G137C A140U | 1.65
U2A A98G | 0.1
A23G U131C | 0.45

Variant | self-cleavage
U9C A86G | 1.18
U37C A52U | 0.57
G14U U37C | 1.24
U26A U132C | 0.9
A67U A110G | 0.25
U2A A90U | 1.25
G20U A94U | 2.23
A18C A62C | 1.25
U49C U122G | 1.54
A69G G123A | 1.43
A64G U139C | 1
U122C G123A | 1.6
U97A A135G | 1.79
A52C A140G | 1.87
A51G A117U | 0.52
A96G C113U | 0.06
A13G C40U | 1.03
A27G A36G | 1.26
U39A U100A | 0.55
A64U A117U | 1.07
U39C A66G | 0.08
U2C A91G | 1.08
C105U A135U | 0.28
A54G C81U | 0.19

Variant | self-cleavage
U43C A54U | 0.85
A24G C81G | 0.21
U72C A117C | 0.08
A111G U127G | 0.02
C25A U38C | 1.05
C17U A62G | 0.91
A78U U102C | 1.21
A36C U103C | 1.44
U2C U43A | 1
A66U A140G | 2.51
A22G A54C | 1.7
C45U | 1.72
C17U A27C | 0.44
A18G U120C | 1.16
A63G C128U | 1.95
A23G A55G | 1.27
U19A | 1.16
U2C C45G | 1.29
A52G A129C | 0.65
U43C A82G | 0.36
A69G G80A | 0.12
A78G G106A | 0.03
A125U A140G | 1.42
